# Measured values: paper PMC7705225, “Hfq-Assisted RsmA Regulation Is Central to Pseudomonas aeruginosa Biofilm Polysaccharide PEL Expression”
# B1: truncated vfr RNA (structured_RNA)
# RNA: CUUUCGGGACUCGGGCAUGGUAGCUAUUACCCACACACCCAAACUCAAACACCUAGACAAGCUGCUCGCACACUGUCACCGCCGCCGCUACACCGCAAAGAGCACCAUCAUCUAUGCCGGCGAUCGCUGCGAU
# Target: RsmA (Pseudomonas aeruginosa PAO1, UniProt O69078 1-61)
# Test: EMSA; without Hfq
# Conditions: protein: recombinant; tags: His6 (C-terminal, RsmA-His6); chain copies: 2; label: none (SYBR Gold stain)
# RsmA, sequence (O69078 whole entry): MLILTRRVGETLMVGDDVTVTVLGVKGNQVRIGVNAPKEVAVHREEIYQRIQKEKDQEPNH
binder,measurement,value
B1,binding result,binds
